One block for each molecule: values may come before it.
How the values were obtained:
[1] = target: AHP1 (Arabidopsis thaliana) (UniProt Q9ZNV9); conditions: cited from earlier work
[2] = target: ETR1 (Arabidopsis thaliana) (UniProt P49333); experiment: MST; conditions: cited from earlier work
[3] = target: ETR2 (Arabidopsis thaliana) (UniProt Q0WPQ2); experiment: MST; conditions: cited from earlier work
[4] = target: recombinant full-length Arabidopsis histidine kinase AHK1 (H10-TEV-AHK1), solubilized in FosCholine-16 (Arabidopsis thaliana) (UniProt Q9SXL4); experiment: MST; 40 nM AlexaFluor488-labelled AHK1 titrated with unlabelled AHK1 (12 uM to 0.4 nM); 50 mM Tris, 300 mM NaCl, 0.015% FosCholine-16, glycerol, pH 7.6; 40% MST power, 70% LED power; initial fluorescence evaluated; one-binding-site model; apparent Kd; monomer to dimer
[5] = target: T1, recombinant full-length Arabidopsis histidine kinase AHK1 (H10-TEV-AHK1), solubilized in FosCholine-16 (Arabidopsis thaliana, UniProt Q9SXL4 1-1207, AlexaFluor488-NHS label on the labelled copy (40 nM) used in MST; the titrated copy is unlabelled); experiment: MST; 40 nM AlexaFluor488-labelled AHK1 titrated with AHP2-GST (12.5 uM to 0.4 nM); HEPES/Tris 50 mM, 300 mM NaCl, FosCholine-16, 5% glycerol, pH 7.6; 40% MST power, 30% LED power; T-Jump evaluated; one-binding-site model; apparent Kd; seven measurements; conditions: both partners purified
T1 construct: Arabidopsis histidine kinase 1 (AHK1), Arabidopsis thaliana, full length; cloned into pET16b-H10-TEV with primers from the ATG to the stop codon; a TEV site lies between the tag and AHK1; No step that cleaves the tag is described; also called AHK1 sensor kinase; AHK1 osmosensor; source: E. coli BL21 (DE3) with pRARE, solubilized with 1% FosCholine-16, purified (Ni-NTA)
T1 sequence (looked up): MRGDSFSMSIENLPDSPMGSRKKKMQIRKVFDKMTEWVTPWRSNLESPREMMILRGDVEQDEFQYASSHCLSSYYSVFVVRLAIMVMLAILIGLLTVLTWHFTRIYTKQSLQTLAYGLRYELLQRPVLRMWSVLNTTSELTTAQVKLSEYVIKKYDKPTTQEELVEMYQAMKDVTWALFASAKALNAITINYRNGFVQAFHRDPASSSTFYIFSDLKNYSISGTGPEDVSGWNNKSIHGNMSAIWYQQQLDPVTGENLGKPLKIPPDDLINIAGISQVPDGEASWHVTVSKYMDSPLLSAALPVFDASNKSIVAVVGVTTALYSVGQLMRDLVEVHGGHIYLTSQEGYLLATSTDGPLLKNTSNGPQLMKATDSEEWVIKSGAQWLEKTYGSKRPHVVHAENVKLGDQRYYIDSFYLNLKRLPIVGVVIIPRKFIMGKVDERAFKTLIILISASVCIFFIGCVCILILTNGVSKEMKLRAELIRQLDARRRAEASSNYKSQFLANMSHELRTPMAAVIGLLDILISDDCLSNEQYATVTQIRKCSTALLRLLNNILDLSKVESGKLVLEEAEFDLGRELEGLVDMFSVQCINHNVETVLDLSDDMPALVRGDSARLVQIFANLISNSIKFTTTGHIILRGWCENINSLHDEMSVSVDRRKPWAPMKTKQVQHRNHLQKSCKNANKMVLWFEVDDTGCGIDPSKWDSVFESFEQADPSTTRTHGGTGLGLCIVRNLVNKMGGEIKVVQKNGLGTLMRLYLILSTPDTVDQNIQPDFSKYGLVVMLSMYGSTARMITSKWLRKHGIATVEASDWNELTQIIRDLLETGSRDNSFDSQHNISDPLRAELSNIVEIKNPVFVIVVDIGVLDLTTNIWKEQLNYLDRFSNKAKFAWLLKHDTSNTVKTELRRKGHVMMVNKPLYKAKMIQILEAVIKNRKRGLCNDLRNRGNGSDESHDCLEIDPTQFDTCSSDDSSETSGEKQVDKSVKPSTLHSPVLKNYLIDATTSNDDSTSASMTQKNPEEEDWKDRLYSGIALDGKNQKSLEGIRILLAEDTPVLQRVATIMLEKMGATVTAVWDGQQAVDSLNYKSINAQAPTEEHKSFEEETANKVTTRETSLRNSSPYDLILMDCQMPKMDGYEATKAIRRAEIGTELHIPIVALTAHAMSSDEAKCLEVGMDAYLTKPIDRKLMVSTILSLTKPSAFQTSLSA

AHP1 (Arabidopsis thaliana), sequence (Q9ZNV9 whole entry): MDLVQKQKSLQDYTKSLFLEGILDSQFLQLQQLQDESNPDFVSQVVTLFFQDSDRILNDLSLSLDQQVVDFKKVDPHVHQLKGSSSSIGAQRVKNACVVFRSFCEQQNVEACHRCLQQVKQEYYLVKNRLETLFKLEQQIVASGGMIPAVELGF

Kd [4]: 208 nM
Molecule: recombinant full-length Arabidopsis histidine kinase AHK1 (H10-TEV-AHK1), solubilized in FosCholine-16 (from UniProt Q9SXL4 1-1207) (receptor)

Kd [5]: 317 ± 62 nM
B1: GST-fusion protein of Arabidopsis histidine phosphotransfer protein 2 (AHP2) (natural protein, Arabidopsis thaliana, UniProt Q9ZNV8 1-156, looked up)
chain: MDALIAQLQRQFRDYTISLYQQGFLDDQFTELKKLQDDGSPDFVSEVLSLFFEDCVKLISNMARALDTTGTVDFSQVGASVHQLKGSSSSVGAKRVKTLCVSFKECCEAKNYEGCVRCLQQVDIEYKALKTKLQDMFNLEKQIIQAGGIVPQVDIN
notes: Arabidopsis histidine phosphotransfer protein 2 (AHP2), Arabidopsis thaliana; cDNA cloned into pGEX-6P-1; The apparent mass is 44 kDa; also called AHP2-GST; GST-tagged AHP2

The remaining lines, values behind:

Molecule: ETR1 (from UniProt P49333)
Kd [1]: 1500 nM | Kd [2]: 326 nM

Molecule: ETR2 (from UniProt Q0WPQ2)
Kd [3]: 96 nM

Source: article PMC7154865, “High-Level Expression, Purification and Initial Characterization of Recombinant Arabidopsis Histidine Kinase AHK1” (Plants, 2020)
